Experimental data taken from the supplement of paper PMC9112550, “Optimization of the antimicrobial peptide Bac7 by deep mutational scanning” (BMC Biology, 2022).

Test system: Escherichia coli TOP10
Experiment: shrunken log2 fold change of peptide-encoding DNA abundance (4.5 h post-induction vs induction); higher = less antimicrobial activity (less host growth inhibition)
Settings: time post-induction: 4.5 h; library: site-saturation at positions 5, 18, 19, 20
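Note: peptides expressed intracellularly from a pBAD plasmid library in pooled LB shake-flask culture, induced with 0.3% L-arabinose, DNA abundance read by NGS, three biological replicates, DESeq2 with apeglm shrinkage.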

| Sequence | shrunken log2 fold change |
| --- | --- |
| RRIRRRPPRLPRPRPRPRQFPRP | 0.225 |
| RRIRMRPPRLPRPRPRPGTLPRP | -0.02 |
| RRIRYRPPRLPRPRPRPVPIPRP | -0.297 |
| RRIRSRPPRLPRPRPRPTWLPRP | 0.455 |
| RRIRGRPPRLPRPRPRPAYSPRP | -0.0128 |
| RRIRARPPRLPRPRPRPHEHPRP | 0.0352 |
| RRIRMRPPRLPRPRPRPLHMPRP | -0.0934 |
| RRIRRRPPRLPRPRPRPESWPRP | 1.12 |
| RRIRHRPPRLPRPRPRPYHIPRP | -0.045 |
| RRIRTRPPRLPRPRPRPVKTPRP | 0.12 |
| RRIRNRPPRLPRPRPRPEKMPRP | -0.00664 |
| RRIRYRPPRLPRPRPRPWCRPRP | -0.414 |
| RRIRVRPPRLPRPRPRPWCWPRP | -0.0537 |
| RRIRCRPPRLPRPRPRPHQHPRP | -0.302 |
| RRIRGRPPRLPRPRPRPIETPRP | 0.312 |
| RRIRIRPPRLPRPRPRPLRNPRP | -0.0491 |
| RRIRERPPRLPRPRPRPHYHPRP | -0.356 |
| RRIRRRPPRLPRPRPRPFAKPRP | 0.219 |
| RRIRPRPPRLPRPRPRPANTPRP | -0.224 |
| RRIRERPPRLPRPRPRPHWRPRP | 0.198 |
| RRIRDRPPRLPRPRPRPRQIPRP | -0.233 |
| RRIRWRPPRLPRPRPRPYFSPRP | -0.722 |
| RRIRHRPPRLPRPRPRPSGVPRP | -0.115 |
| RRIRLRPPRLPRPRPRPDAYPRP | -0.281 |
| RRIRTRPPRLPRPRPRPCHGPRP | -0.0399 |

| Sequence | shrunken log2 fold change |
| --- | --- |
| RRIRGRPPRLPRPRPRPVKGPRP | 0.276 |
| RRIRIRPPRLPRPRPRPERSPRP | -0.164 |
| RRIRNRPPRLPRPRPRPIYNPRP | -0.642 |
| RRIRLRPPRLPRPRPRPGILPRP | -0.105 |
| RRIRWRPPRLPRPRPRPGQDPRP | 0.334 |
| RRIRARPPRLPRPRPRPQDNPRP | -0.0337 |
| RRIRLRPPRLPRPRPRPNRQPRP | -0.407 |
| RRIRCRPPRLPRPRPRPKTIPRP | -0.141 |
| RRIRFRPPRLPRPRPRPGHGPRP | 0.148 |
| RRIRERPPRLPRPRPRPCPSPRP | -0.115 |
| RRIRRRPPRLPRPRPRPQISPRP | -0.0603 |
| RRIRDRPPRLPRPRPRPTVEPRP | 0.766 |
| RRIRNRPPRLPRPRPRPHIEPRP | -0.195 |
| RRIRLRPPRLPRPRPRPCVQPRP | -0.0514 |
| RRIRRRPPRLPRPRPRPPEFPRP | 0.614 |
| RRIRRRPPRLPRPRPRPDNHPRP | -0.215 |
| RRIRHRPPRLPRPRPRPYCVPRP | -0.154 |
| RRIRGRPPRLPRPRPRPYKCPRP | -0.00955 |
| RRIRYRPPRLPRPRPRPCGKPRP | -0.0542 |
| RRIRGRPPRLPRPRPRPKMCPRP | 0.102 |
| RRIRCRPPRLPRPRPRPWTEPRP | -0.755 |
| RRIRFRPPRLPRPRPRPCAGPRP | -0.177 |
| RRIRLRPPRLPRPRPRPAACPRP | 0.267 |
| RRIRFRPPRLPRPRPRPLRCPRP | 0.0723 |
| RRIRIRPPRLPRPRPRPHRHPRP | -0.364 |

| Sequence | shrunken log2 fold change |
| --- | --- |
| RRIRPRPPRLPRPRPRPHVRPRP | 0.036 |
| RRIRSRPPRLPRPRPRPATFPRP | -0.366 |
| RRIRLRPPRLPRPRPRPWEKPRP | 0.0916 |
| RRIRHRPPRLPRPRPRPECKPRP | -0.0985 |
| RRIRGRPPRLPRPRPRPNQKPRP | 0.0822 |
| RRIRQRPPRLPRPRPRPHWRPRP | -0.374 |
| RRIRERPPRLPRPRPRPGMKPRP | 0.0657 |
| RRIRSRPPRLPRPRPRPFQQPRP | 0.000179 |
| RRIRMRPPRLPRPRPRPQMSPRP | 0.174 |
| RRIRIRPPRLPRPRPRPWEVPRP | -0.00884 |
| RRIRKRPPRLPRPRPRPWYFPRP | 0.0699 |
| RRIRARPPRLPRPRPRPIINPRP | -0.174 |
| RRIRGRPPRLPRPRPRPCNIPRP | -0.284 |
| RRIRKRPPRLPRPRPRPDGHPRP | -0.0242 |
| RRIRNRPPRLPRPRPRPETQPRP | 0.162 |
| RRIRCRPPRLPRPRPRPSNSPRP | -0.644 |
| RRIRMRPPRLPRPRPRPWNAPRP | -0.0284 |
| RRIRCRPPRLPRPRPRPIWSPRP | 0.162 |
| RRIRRRPPRLPRPRPRPDCGPRP | 0.16 |
| RRIRERPPRLPRPRPRPIYIPRP | -0.138 |
| RRIRFRPPRLPRPRPRPPERPRP | 0.891 |
| RRIRHRPPRLPRPRPRPENHPRP | -0.235 |
| RRIRERPPRLPRPRPRPDHMPRP | -0.0199 |
| RRIRERPPRLPRPRPRPFTKPRP | -0.0421 |
| RRIRPRPPRLPRPRPRPYGKPRP | -0.307 |

| Sequence | shrunken log2 fold change |
| --- | --- |
| RRIRWRPPRLPRPRPRPLLAPRP | 1.03 |
| RRIRMRPPRLPRPRPRPTCDPRP | 0.79 |
| RRIRQRPPRLPRPRPRPVNIPRP | 0.0209 |
| RRIRPRPPRLPRPRPRPPITPRP | -0.0969 |
| RRIRKRPPRLPRPRPRPVYWPRP | -0.0795 |
| RRIRGRPPRLPRPRPRPSGKPRP | 0.367 |
| RRIRMRPPRLPRPRPRPGRAPRP | 1.27 |
| RRIRNRPPRLPRPRPRPVNNPRP | -0.647 |
| RRIRERPPRLPRPRPRPTLLPRP | -0.137 |
| RRIRNRPPRLPRPRPRPQPAPRP | 0.0618 |
| RRIRNRPPRLPRPRPRPARIPRP | -0.0767 |
| RRIRSRPPRLPRPRPRPTRWPRP | 0.721 |
| RRIRCRPPRLPRPRPRPADFPRP | 1.07 |
| RRIRTRPPRLPRPRPRPCTLPRP | -0.314 |
| RRIRIRPPRLPRPRPRPMHNPRP | -0.332 |
| RRIRWRPPRLPRPRPRPFYKPRP | -0.658 |
| RRIRYRPPRLPRPRPRPTSWPRP | -0.138 |
| RRIRDRPPRLPRPRPRPHFTPRP | -0.307 |
| RRIRARPPRLPRPRPRPCFNPRP | 0.0639 |
| RRIRPRPPRLPRPRPRPKYCPRP | -0.91 |
| RRIRTRPPRLPRPRPRPWSCPRP | -0.29 |
| RRIRQRPPRLPRPRPRPKVEPRP | -0.00957 |
| RRIRWRPPRLPRPRPRPHSMPRP | -0.216 |
| RRIRQRPPRLPRPRPRPWQMPRP | -0.0417 |
| RRIRIRPPRLPRPRPRPRGPPRP | 0.81 |

| Sequence | shrunken log2 fold change |
| --- | --- |
| RRIRCRPPRLPRPRPRPLLYPRP | -0.572 |
| RRIRARPPRLPRPRPRPMQKPRP | 0.222 |
| RRIRMRPPRLPRPRPRPLMNPRP | -0.263 |
| RRIRPRPPRLPRPRPRPDYKPRP | -0.66 |
| RRIRVRPPRLPRPRPRPERNPRP | -0.323 |
| RRIRCRPPRLPRPRPRPAEDPRP | 0.213 |
| RRIRGRPPRLPRPRPRPSPMPRP | 0.474 |
| RRIRKRPPRLPRPRPRPAWNPRP | 1 |
| RRIRERPPRLPRPRPRPIQQPRP | -0.0452 |
| RRIRFRPPRLPRPRPRPWMSPRP | -0.0139 |
| RRIRRRPPRLPRPRPRPRKFPRP | 0.491 |
| RRIRSRPPRLPRPRPRPAWVPRP | 0.441 |
| RRIRCRPPRLPRPRPRPKGSPRP | 0.189 |
| RRIRKRPPRLPRPRPRPNAHPRP | 0.208 |
| RRIRGRPPRLPRPRPRPGSKPRP | 0.0737 |
| RRIRWRPPRLPRPRPRPMFRPRP | -0.129 |
| RRIRWRPPRLPRPRPRPHAYPRP | -0.349 |
| RRIRGRPPRLPRPRPRPCIPPRP | -0.165 |
| RRIRKRPPRLPRPRPRPYMRPRP | -0.0194 |
| RRIRLRPPRLPRPRPRPRRSPRP | -0.169 |
| RRIRRRPPRLPRPRPRPYTMPRP | -0.255 |
| RRIRIRPPRLPRPRPRPDIDPRP | -0.151 |
| RRIRMRPPRLPRPRPRPIQCPRP | -0.239 |
| RRIRLRPPRLPRPRPRPVWAPRP | 0.424 |
| RRIRVRPPRLPRPRPRPENCPRP | -0.0723 |
